Assay results published in paper PMC9771362.
Values belong to the substance of their own block, whether it stands above or below them.

Tests used:
[1] = biological target: Chaetomium thermophilum nuclear distribution protein NudE coiled-coil, NudECC (residues 1-190) (Chaetomium thermophilum); test: ITC; IC construct in the syringe (200-400 µM) titrated into p150_(CC1B) or NudECC in the cell (20-40 µM); 25°C; 50 mM sodium phosphate pH 7.5, 50 mM NaCl, 1 mM sodium azide; two-step model for p150_(CC1B), one-site model for NudECC
[2] = biological target: Chaetomium thermophilum dynactin p150^Glued coiled-coil 1B, p150_(CC1B) (residues 478-680) (Chaetomium thermophilum); test: as above
[3] = biological target: Chaetomium thermophilum dynein intermediate chain IC_(100-260) (Chaetomium thermophilum); test: SEC-MALS; complexes of IC fragments (IC_(1-88)/IC_(100-260); IC_(1-88)/p150_(CC1B)) and p150_(CC1B) alone; Superdex 200; conditions not given
[4] = biological target: Chaetomium thermophilum dynactin p150^Glued coiled-coil 1B, p150_(CC1B) (residues 478-680) (Chaetomium thermophilum); test: as above
[5] = biological target: Chaetomium thermophilum nuclear distribution protein NudE coiled-coil, NudECC (residues 1-190) (Chaetomium thermophilum); test: AUC; sedimentation equilibrium, dimer to monomers; three concentrations in the range 15-60 µM, 10,000, 14,000 and 18,000 rpm, 20°C; global fit to a monomer-dimer self-association model
[6] = biological target: Chaetomium thermophilum dynactin p150^Glued coiled-coil 1B, p150_(CC1B) (residues 478-680) (Chaetomium thermophilum); test: as above

Kd [1]: 0.3 µM | stoichiometry N [1]: 1 | N of each step (two-step binding model) [2]: 0.5 | stoichiometry N [2]: 1 | stoichiometry N [3]: 1 | stoichiometry N (IC (1-88) chains per p150 (CC1B) dimer) [4]: 2
Substance: Chaetomium thermophilum dynein intermediate chain IC_(1-88) (domain or fragment)

Kd [5]: 0.2 µM | stoichiometry N [5]: 2
Substance: Chaetomium thermophilum nuclear distribution protein NudE coiled-coil, NudECC (residues 1-190) (domain or fragment)

stoichiometry N [4]: 2 | Kd [6]: 0.03 µM | stoichiometry N [6]: 2
Substance: Chaetomium thermophilum dynactin p150^Glued coiled-coil 1B, p150_(CC1B) (residues 478-680) (domain or fragment)

Kd [2]: 20 µM
Substance: Chaetomium thermophilum dynein intermediate chain IC_(37-88) (domain or fragment)
